Patent publication US20060263802A1 (CRUCELL HOLLAND B V, published 2006)

Tests used:
Assay in all cases: PEPSCAN ELISA, looped peptide, 10 ug/ml
[1] = biological target: looped/cyclic peptide … (rabies virus strain ERA)
[2] = biological target: looped/cyclic peptide … (rabies virus strain ERA); remark: listed apart in the source
[3] = biological target: looped/cyclic peptide … (rabies virus strain ERA); remark: listed apart in the source
[4] = biological target: looped/cyclic peptide … (rabies virus strain ERA); remark: listed apart in the source
[5] = biological target: looped/cyclic peptide … (rabies virus strain ERA); remark: listed apart in the source
[6] = biological target: looped/cyclic peptide … (rabies virus strain ERA); remark: listed apart in the source
[7] = biological target: looped/cyclic peptide … (rabies virus strain ERA); remark: listed apart in the source
[8] = biological target: looped/cyclic peptide … (rabies virus strain ERA); remark: listed apart in the source
[9] = biological target: looped/cyclic peptide … (rabies virus strain ERA); remark: listed apart in the source
[10] = biological target: looped/cyclic peptide … (rabies virus strain ERA); remark: listed apart in the source
[11] = biological target: looped/cyclic peptide … (rabies virus strain ERA); remark: listed apart in the source
[12] = biological target: looped/cyclic peptide … (rabies virus strain ERA); remark: listed apart in the source
[13] = biological target: looped/cyclic peptide … (rabies virus strain ERA); remark: listed apart in the source
[14] = biological target: looped/cyclic peptide … (rabies virus strain ERA); remark: listed apart in the source
[15] = biological target: looped/cyclic peptide … (rabies virus strain ERA); remark: listed apart in the source
[16] = biological target: looped/cyclic peptide … (rabies virus strain ERA); remark: listed apart in the source
[17] = biological target: looped/cyclic peptide … (rabies virus strain ERA); remark: listed apart in the source
[18] = biological target: looped/cyclic peptide … (rabies virus strain ERA); remark: listed apart in the source
[19] = biological target: looped/cyclic peptide … (rabies virus strain ERA); remark: listed apart in the source
[20] = biological target: looped/cyclic peptide … (rabies virus strain ERA); remark: listed apart in the source
[21] = biological target: looped/cyclic peptide … (rabies virus strain ERA); remark: listed apart in the source
[22] = biological target: looped/cyclic peptide … (rabies virus strain ERA); remark: listed apart in the source
[23] = biological target: looped/cyclic peptide … (rabies virus strain ERA); remark: listed apart in the source
[24] = biological target: looped/cyclic peptide … (rabies virus strain ERA); remark: listed apart in the source
[25] = biological target: looped/cyclic peptide … (rabies virus strain ERA); remark: listed apart in the source
[26] = biological target: looped/cyclic peptide … (rabies virus strain ERA); remark: listed apart in the source
[27] = biological target: looped/cyclic peptide … (rabies virus strain ERA); remark: listed apart in the source
[28] = biological target: looped/cyclic peptide … (rabies virus strain ERA); remark: listed apart in the source
[29] = biological target: looped/cyclic peptide … (rabies virus strain ERA); remark: listed apart in the source
[30] = biological target: looped/cyclic peptide … (rabies virus strain ERA); remark: listed apart in the source
[31] = biological target: looped/cyclic peptide … (rabies virus strain ERA); remark: listed apart in the source
[32] = biological target: looped/cyclic peptide … (rabies virus strain ERA); remark: listed apart in the source
[33] = biological target: looped/cyclic peptide … (rabies virus strain ERA); remark: listed apart in the source
[34] = biological target: looped/cyclic peptide … (rabies virus strain ERA); remark: listed apart in the source
[35] = biological target: looped/cyclic peptide … (rabies virus strain ERA); remark: listed apart in the source
[36] = biological target: looped/cyclic peptide … (rabies virus strain ERA); remark: listed apart in the source
[37] = biological target: looped/cyclic peptide … (rabies virus strain ERA); remark: listed apart in the source
[38] = biological target: looped/cyclic peptide … (rabies virus strain ERA); remark: listed apart in the source
[39] = biological target: looped/cyclic peptide … (rabies virus strain ERA); remark: listed apart in the source
[40] = biological target: looped/cyclic peptide … (rabies virus strain ERA); remark: listed apart in the source
[41] = biological target: looped/cyclic peptide … (rabies virus strain ERA); remark: listed apart in the source
[42] = biological target: looped/cyclic peptide … (rabies virus strain ERA); remark: listed apart in the source
[43] = biological target: looped/cyclic peptide … (rabies virus strain ERA); remark: listed apart in the source
[44] = biological target: looped/cyclic peptide … (rabies virus strain ERA); remark: listed apart in the source
[45] = biological target: looped/cyclic peptide … (rabies virus strain ERA); remark: listed apart in the source
[46] = biological target: looped/cyclic peptide … (rabies virus strain ERA); remark: listed apart in the source
[47] = biological target: looped/cyclic peptide … (rabies virus strain ERA); remark: listed apart in the source
[48] = biological target: looped/cyclic peptide … (rabies virus strain ERA); remark: listed apart in the source
[49] = biological target: looped/cyclic peptide … (rabies virus strain ERA); remark: listed apart in the source
[50] = biological target: looped/cyclic peptide … (rabies virus strain ERA); remark: listed apart in the source
[51] = biological target: looped/cyclic peptide … (rabies virus strain ERA); remark: listed apart in the source
[52] = biological target: looped/cyclic peptide … (rabies virus strain ERA); remark: listed apart in the source
[53] = biological target: looped/cyclic peptide … (rabies virus strain ERA); remark: listed apart in the source
[54] = biological target: looped/cyclic peptide … (rabies virus strain ERA); remark: listed apart in the source
[55] = biological target: looped/cyclic peptide … (rabies virus strain ERA); remark: listed apart in the source
[56] = biological target: looped/cyclic peptide … (rabies virus strain ERA); remark: listed apart in the source
[57] = biological target: looped/cyclic peptide … (rabies virus strain ERA); remark: listed apart in the source
[58] = biological target: looped/cyclic peptide … (rabies virus strain ERA); remark: listed apart in the source
[59] = biological target: looped/cyclic peptide … (rabies virus strain ERA); remark: listed apart in the source
[60] = biological target: looped/cyclic peptide … (rabies virus strain ERA); remark: listed apart in the source
[61] = biological target: looped/cyclic peptide … (rabies virus strain ERA); remark: listed apart in the source
[62] = biological target: looped/cyclic peptide … (rabies virus strain ERA); remark: listed apart in the source
[63] = biological target: looped/cyclic peptide … (rabies virus strain ERA); remark: listed apart in the source
[64] = biological target: looped/cyclic peptide … (rabies virus strain ERA); remark: listed apart in the source
[65] = biological target: looped/cyclic peptide … (rabies virus strain ERA); remark: listed apart in the source
[66] = biological target: looped/cyclic peptide … (rabies virus strain ERA); remark: listed apart in the source
[67] = biological target: looped/cyclic peptide … (rabies virus strain ERA); remark: listed apart in the source
[68] = biological target: looped/cyclic peptide … (rabies virus strain ERA); remark: listed apart in the source
[69] = biological target: looped/cyclic peptide … (rabies virus strain ERA); remark: listed apart in the source
[70] = biological target: looped/cyclic peptide … (rabies virus strain ERA); remark: listed apart in the source
[71] = biological target: looped/cyclic peptide … (rabies virus strain ERA); remark: listed apart in the source
[72] = biological target: looped/cyclic peptide … (rabies virus strain ERA); remark: listed apart in the source
[73] = biological target: looped/cyclic peptide … (rabies virus strain ERA); remark: listed apart in the source
[74] = biological target: looped/cyclic peptide … (rabies virus strain ERA); remark: listed apart in the source
[75] = biological target: looped/cyclic peptide … (rabies virus strain ERA); remark: listed apart in the source
[76] = biological target: looped/cyclic peptide … (rabies virus strain ERA); remark: listed apart in the source
[77] = biological target: looped/cyclic peptide … (rabies virus strain ERA); remark: listed apart in the source
[78] = biological target: looped/cyclic peptide … (rabies virus strain ERA); remark: listed apart in the source
[79] = biological target: looped/cyclic peptide … (rabies virus strain ERA); remark: listed apart in the source
[80] = biological target: looped/cyclic peptide … (rabies virus strain ERA); remark: listed apart in the source
[81] = biological target: looped/cyclic peptide … (rabies virus strain ERA); remark: listed apart in the source
[82] = biological target: looped/cyclic peptide … (rabies virus strain ERA); remark: listed apart in the source
[83] = biological target: looped/cyclic peptide … (rabies virus strain ERA); remark: listed apart in the source
[84] = biological target: looped/cyclic peptide … (rabies virus strain ERA); remark: listed apart in the source
[85] = biological target: looped/cyclic peptide … (rabies virus strain ERA); remark: listed apart in the source
[86] = biological target: looped/cyclic peptide … (rabies virus strain ERA); remark: listed apart in the source
[87] = biological target: looped/cyclic peptide … (rabies virus strain ERA); remark: listed apart in the source
[88] = biological target: looped/cyclic peptide … (rabies virus strain ERA); remark: listed apart in the source
[89] = biological target: looped/cyclic peptide … (rabies virus strain ERA); remark: listed apart in the source
[90] = biological target: looped/cyclic peptide … (rabies virus strain ERA); remark: listed apart in the source
[91] = biological target: looped/cyclic peptide … (rabies virus strain ERA); remark: listed apart in the source

B1: human monoclonal antibody CRJA (antibody, V domains shown)
VH: EVQLLESGGGLVQPGGSLRLSCAASGFTFSNYAMSWVRQAPGKGLEWVSAISASGHSTYLADSVKGRFTISRDNSKNTLYLQMNSLRAEDTAVYYCAKDREVTMIVVLNGGFDYWGQGTRVTVSS
VL: EIVLTQSPATLSLSPGERATLACRASQTASRYLAWYQQKPGQAPRLLIYDTSNRATGIPARFSGSGSGTDFTLSISSLEPEDFAVYYCQQRFNWPWTFGQGTKVEFK
OD [1]: 104 OD
OD [2]: 105 OD
OD [3]: 44 OD
OD [4]: 96 OD
OD [5]: 96 OD
OD [6]: 96 OD
OD [7]: 78 OD
OD [8]: 100 OD
OD [9]: 160 OD
OD [10]: 105 OD
OD [11]: 127 OD
OD [12]: 104 OD
OD [13]: 42 OD
OD [14]: 90 OD
OD [15]: 105 OD
OD [16]: 90 OD
OD [17]: 68 OD
OD [18]: 110 OD
OD [19]: 90 OD
OD [20]: 105 OD
OD [21]: 82 OD
OD [22]: 88 OD
OD [23]: 89 OD
OD [24]: 104 OD
OD [25]: 54 OD
OD [26]: 93 OD
OD [27]: 94 OD
OD [28]: 92 OD
OD [29]: 113 OD
OD [30]: 79 OD
OD [31]: 165 OD
OD [32]: 87 OD
OD [33]: 110 OD
OD [34]: 165 OD
OD [35]: 100 OD
OD [36]: 71 OD
OD [37]: 120 OD
OD [38]: 104 OD
OD [39]: 83 OD
OD [40]: 112 OD
OD [41]: 58 OD
OD [42]: 108 OD
OD [43]: 71 OD
OD [44]: 52 OD
OD [45]: 94 OD
OD [46]: 46 OD
OD [47]: 108 OD
OD [48]: 75 OD
OD [49]: 98 OD
OD [50]: 98 OD
OD [51]: 43 OD
OD [52]: 78 OD
OD [53]: 108 OD
OD [54]: 84 OD
OD [55]: 86 OD
OD [56]: 105 OD
OD [57]: 103 OD
OD [58]: 98 OD
OD [59]: 110 OD
OD [60]: 55 OD
OD [61]: 104 OD
OD [62]: 115 OD
OD [63]: 103 OD
OD [64]: 132 OD
OD [65]: 92 OD
OD [66]: 92 OD
OD [67]: 78 OD
OD [68]: 120 OD
OD [69]: 96 OD
OD [70]: 68 OD
OD [71]: 100 OD
OD [72]: 45 OD
OD [73]: 87 OD
OD [74]: 114 OD
OD [75]: 98 OD
OD [76]: 71 OD
OD [77]: 94 OD
OD [78]: 110 OD
OD [79]: 98 OD
OD [80]: 114 OD
OD [81]: 87 OD
OD [82]: 115 OD
OD [83]: 73 OD
OD [84]: 71 OD
OD [85]: 104 OD
OD [86]: 117 OD
OD [87]: 113 OD
OD [88]: 92 OD
OD [89]: 104 OD
OD [90]: 112 OD
OD [91]: 100 OD
